According to article PMC4447274, “Gene Regulation by the LiaSR Two-Component System in Streptococcus mutans” (PLoS ONE, 2015):
Positions count from the first letter of the chain named. Names may count otherwise.

What was measured:
[1] = biological target: T1, LiaR (Streptococcus mutans, UniProt Q8DVJ8); test: Phos-Tag SDS-PAGE mobility shift (phosphorylation of LiaR); assay type: biochemical; details: 20 mM MnCl2, 50 mM Tris-Cl, 50 mM KCl, 1 mM DTT, pH 7.5, 37 °C, 1 h, phosphodonor, covalent phosphorylation
T1 construct: gene SMU_487; ORF from start codon, N-terminal His tag, E. coli BL21, Ni-NTA (pASK-IBA43+, pIBE11)

[2] = biological target: T2, His-LiaR (Streptococcus mutans UA159) (UniProt Q8DVJ8); test: EMSA; details: 20 mM Tris-Cl pH 7.5, 100 mM NaCl, 0.01 mM DTT, 5% glycerol, 1 mM EDTA, 0.01 mg/ml BSA, 5 mM MgCl2, 10 ug/ml poly(dI-dC), 30 min (EMSA); BLI in binding buffer …
T2 sequence: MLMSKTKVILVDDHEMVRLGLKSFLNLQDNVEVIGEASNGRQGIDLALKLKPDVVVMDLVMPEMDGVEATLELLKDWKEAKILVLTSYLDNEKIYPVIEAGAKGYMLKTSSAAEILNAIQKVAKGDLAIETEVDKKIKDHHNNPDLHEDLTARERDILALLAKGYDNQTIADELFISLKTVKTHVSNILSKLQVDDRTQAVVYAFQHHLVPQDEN

[3] = biological target: T3, His-LiaR-D58A D58A (Streptococcus mutans UA159) (UniProt Q8DVJ8); test: EMSA; details: 20 mM Tris-Cl pH 7.5, 100 mM NaCl, 0.01 mM DTT, 5% glycerol, 1 mM EDTA, 0.01 mg/ml BSA, 5 mM MgCl2, 10 ug/ml poly(dI-dC), 30 min (EMSA); BLI in binding buffer …
T3 sequence: T2 sequence with D58A

[4] = biological target: T2, His-LiaR (Streptococcus mutans UA159); test: competition; details: 20 mM Tris-Cl pH 7.5, 100 mM NaCl, 0.01 mM DTT, 5% glycerol, 1 mM EDTA, 0.01 mg/ml BSA, 5 mM MgCl2, 10 ug/ml poly(dI-dC), 30 min (EMSA); BLI in binding buffer …
[5] = biological target: T4, His-LiaR (Streptococcus mutans UA159, UniProt Q8DVJ8 1-215); test: BLI; 1 uM LiaR; 20 mM Tris-Cl pH 7.5, 100 mM NaCl, 0.01 mM DTT, 5% glycerol, 1 mM EDTA, 0.01 mg/ml BSA, 5 mM MgCl2, 10 ug/ml poly(dI-dC), 30 min (EMSA); BLI in binding buffer; details: protein: recombinant; tags: N-terminal His; chain copies: 2; label: 32P end label (EMSA); 3' biotin on one strand (BLI)
[6] = biological target: T4, His-LiaR; test: EMSA; 15-30 pmol LiaR; 20 mM Tris-Cl pH 7.5, 100 mM NaCl, 0.01 mM DTT, 5% glycerol, 1 mM EDTA, 0.01 mg/ml BSA, 5 mM MgCl2, 10 ug/ml poly(dI-dC), 30 min (EMSA); BLI in binding buffer; details: protein: recombinant; tags: N-terminal His; chain copies: 2; label: 32P end label
[7] = biological target: T4, His-LiaR; test: BLI; 1 uM LiaR; Req reduced 3-fold; 20 mM Tris-Cl pH 7.5, 100 mM NaCl, 0.01 mM DTT, 5% glycerol, 1 mM EDTA, 0.01 mg/ml BSA, 5 mM MgCl2, 10 ug/ml poly(dI-dC), 30 min (EMSA); BLI in binding buffer; details: protein: recombinant; tags: N-terminal His; chain copies: 2; label: 32P end label (EMSA); 3' biotin on one strand (BLI)

CC(=O)OP(=O)(O)O [Ac-Po4, acetyl phosphate]
Phos-Tag SDS-PAGE mobility shift (phosphorylation of LiaR) ([1]; 50 mM acetyl phosphate): The wild-type protein readily acquired phosphate from both acetyl phosphate and phosphoamidate

NP(=O)(O)O [PA, phosphoamidate]
Phos-Tag SDS-PAGE mobility shift (phosphorylation of LiaR) ([1]; 20 mM phosphoamidate): The wild-type protein readily acquired phosphate from both acetyl phosphate and phosphoamidate

AGCTTAGTTATCATACATCAATCTTATACAGTCTTAATCCTAGACGGATACAAGTTTGATAACAAAAAAGTTATCTCTTCAAACAAGGAGGCTGAGGCAAGAACCTTAAACTTATAAATATAATAACTACAACATATGAGTATACCTGCATTAGATAACATTATTATCAACAGATCATAAACATAACTTGAATTGACATG (double strand) [PSMU.485 (Plia)]
binding [2]: no binding

ATTACCAATGTGAATCGTGTGGTCAAGTTTATCAAAGAAAAAGACGAATGAATACGAAAAAATACGCTTGTGGCAACTGCCATGGAAAATTAAGACATCAAAATCAGTCGTAAGGCTGATTTTATTCTTCTCTAAATAGTTTATACTAATAGCATCATGAGATTTGTGATTCATTTTTTAAAAAAGGGAGAGTTGTTTGT (double strand) [PSMU.753]
binding [2]: binds

CCTAAGTCCACCTCCCATCTTTAATCAATAGAGTTAGCACTCTTAACAGACGACTGCTAACTTCATAATTCCATTATACTCCATTCCTAATTTCTGTCAAGAGAAAAATACAAAAAATTAGCACTCTTTCTGCTTGAGTGCTAAAAATCCGACTTAAGACTTAGTTTTATTGCTGT (double strand) [PhrcA]
binding [2]: binds

CTTGTTTGAAGAGATAACTTTTTTGTTATCAAACTTGTATCCGTCTAGGATTAAGACTGTATAAGATTGATGTATGATAACTAAGCTATGGCGTCTTTGATATTTGAAAAATTCTCTTTATCTTTAGTGTTATTTGGTCTAGATCAAGAGGTGAAATTTATCCTAAATTTTGATACAATGACTAATAATTGTAGAACTGAAGGAAGCCTTATG (double strand) [Alternative PSMU.485]
binding [2]: no binding

GTTTATTCAAGAAATTCGCAAAGGTCCATCTCCTTTTTCTAAAGTCACTTATGTTGACGTCAATATAGCAAATTTTTCTGATTACCATGATTTCAGAATGGCCAATTAATTTATCTCAAAATCATTCTCAAGAACTATTGAGTATTTTACTAAAAAACAGTAAAATAGATAGGTATTATTAAAATCAAAGGAAGATTATC (double strand) [PSMU.1727]
binding [2]: binds

TTAATTGAGGAAGATAATACTGAAGAAAAACAGTCTTCTAAAGAAAAAGAAACTGATGAGAAAGCTGACAAAAACCTTGTTTTAGAGCTGGATGATACAATTGAGCTTGAAGATTAAATAAAAATAGGTCCCAAGACCGACTCTTTATTTAATAAGCTATGCTAAGATAATATTATCCTGTAAGGAAAGAGAGATTTAAAC (double strand) [PSMU.2084]
binding [2]: binds
binding [3]: no binding
binding [4]: binds

B1: A23G/T25C consensus (dsDNA)
DNA 1: ATCAAAATCAGTCTCAAGACCGGTC
DNA 2: GACCGGTCTTGAGACTGATTTTGAT
binding signal [5]: ~1.5 fold reduction of Rmax and Req vs consensus

B2: IR only (16-bp) (dsDNA)
DNA 1: TCAGTCTCAAGACCGATT
DNA 2: AATCGGTCTTGAGACTGA
binding result [6]: no binding

B3: C13A/A17G consensus (dsDNA)
DNA 1: ATCAAAATCAGTATCAGGACCGATT
DNA 2: AATCGGTCCTGATACTGATTTTGAT
binding signal [7]: ~4 fold reduction of Rmax vs consensus
